# Laboratory results reported in patent publication US20040038338A1, “Influence of LRP cytoplasmic domain on Abeta production” (priority 2001, published 2004).
# Entries after “also recorded” stand apart in the source; their conditions may differ.
# What was measured:
# Aβ secretion [1] = experiment: Aβ secretion from APP751-expressing CHO cells transfected with LRP-CT; type: cell-based; conditions: LRP-CT overexpressed in APP751-expressing CHO cells (LRP +/+)
# APP internalization = experiment: Internalization of cell surface APP by iodinated 1G7 antibody at 37° C.; type: cell-based, mouse; conditions: LRP-CT expressed in APP751 expressing LRP−/− cells; 30 min at 37° C.; compared to LRP± cells
# Description: To measure internalization of cell surface APP, iodinated 1G7 antibody was added to confluent cultures of LRP±, LRP−/−, or LRP−/−CT fibroblasts stably transfected with APP695 or APP751 at 37° C. for 30 min. After incubation, cells were rapidly chilled on ice, and the reaction was quenched by the addition of ice-cold binding medium. Chilled cells were extensively washed and remaining surface antibody was detached by two acid washes. The cells were then lysed and collected for analysis. Acid-labile and acid-resistant radioactivity represents the surface and internalized pools of APP, respectively. Specific binding was determined after subtraction of the radioactive counts obtained from parallel cultures of untransfected LRP± and LRP−/− fibroblasts. The ratio of acid-resistant to acid-labile counts therefore provided a measure of the internalized versus cell surface pools of APP. All experiments in this study were repeated one to three times. […]
# RESULTS: An APP internalization assay was performed in LRP-deficient cells expressing either APP695 or APP751 using a protocol established in Inventors' laboratory in which iodinated APP monoclonal antibody (1G7) was added to cultured cells at 37° C. for 30 minutes [Koo E H and Squazzo S L. J. Biol. Chem. 269:17386-17389, 1994]. Internalized and cell surface APP can be rapidly determined by the acid resistant and acid labile pools, respectively. […]
# Aβ secretion [2] = experiment: Aβ secretion, transient expression of LRP-CT in N2A mouse neuroblastoma cells; type: cell-based
# [3] = tested on: APP processing in CHO 13-5-1 cells; experiment: Transient expression of LRP-CT constructs in LRP deficient CHO 13-5-1 cells, APP-CTF and APPs by immunoblotting; type: cell-based; conditions: LRP−/− CHO 13-5-1 cells; compared to control levels
# Description: (§1) Mouse fibroblasts deficient in LRP (LRP−/−; PEA 13) and corresponding LRP expressing control cells (LRP±; PEA 10) were obtained from American Type Culture Collection (Rockville, Md., USA) and cultured as described previously (Kang et al., 2000). LRP deficient CHO cell line (13-5-1), CHO cell line expressing a LRP trafficking mutant (14-2-1), and corresponding CHO K1 control cells (kind gift of Dr. S. Leppla) were grown in alpha DMEM supplemented with 10% fetal bovine serum (FitzGerald et al., 1995). Human APP695 and APP751 were inserted into the pBabepuro retroviral expression vector (Morgenstern and Land, 1990) and transferred into GP+E86 packaging cell line. Stable transformants were selected with puromycin (5 μg/ml). After infection with recombinant viruses, mouse fibroblasts were selected with puromycin (2.5 μg/ml)and analyzed after clonal selection for equal APP expression. […] After infection with recombinant viruses, LRP−/− mouse fibroblasts were selected with hygromycin (2.5 μg/ml) and analyzed (LRP−/−CT). […]
# (§2) For detection of intracellular proteins, cell extracts were prepared using an NP40 lysis buffer. […] Western blotting was carried out with the indicated antibodies and detected by enhanced chemiluminescence (Pierce). Quantitation of the chemiluminescence signal was carried out with a CCD camera imaging system (GeneGnome, Syngene, Frederick, Md.).
# cell surface APP = experiment: Cell surface APP by iodinated 1G7 antibody at 4° C.; type: cell-based, mouse; conditions: LRP-CT expressed in LRP−/− cells expressing APP751
# Description: To measure APP surface expression or internalization of surface APP, iodinated 1G7 monoclonal antibody was added to the cells in triplicate exactly as described previously (Koo et al., 1996). For the measurement of cell surface APP, the iodinated antibody was added to APP transfected LRP± and LRP−/− fibroblasts at 4° C. for 30 min followed by extensive washes. Specific binding was calculated after subtraction of the radioactivity obtained from parallel cultures of untransfected LRP± and LRP−/− fibroblasts, respectively. The radioactivity was then normalized to the rate of production of APP, which was determined in parallel cultures. The latter cells were metabolically labeled as described before and immunoprecipitated with polyclonal APP antibody to the C-terminus (CT15). Immunoprecipitates were subjected to SDS-PAGE, gels were dried and the APP signal was quantified by phosphor imaging.
# Aβ secretion [4] = experiment: Aβ secretion, transient expression of LRP-CT in human glioma cells; type: cell-based
# APP-CTF = APP-CTF levels by immunoblotting (CT15) after expression of LRP-CT constructs in LRP−/− fibroblasts; type: cell-based, mouse; conditions: construct expressed in LRP−/− fibroblasts expressing APP751; compared to LRP± control cells
# Description: as §1, §2
# Aβ = Aβ ELISA of medium from LRP−/− fibroblasts expressing LRP-CT; type: cell-based, mouse; conditions: LRP-CT expressed in LRP−/− cells transfected with APP751; 72 hour collection; compared to LRP± cells
# Description: Media from LRP−/−, LRP± LRP−/−CT fibroblasts was collected after an incubation period of 72 hours in serum free IS-CHO medium. Debris was removed by centrifugation (13,000 rpm for 20 min) and the supernatants were subjected to Aβ40 quantification using a standard sandwich ELISA described previously (Kang et al., 2000).
# APPs = APPs in medium by immunoprecipitation-western blotting, LRP−/− fibroblasts expressing LRP-CT constructs; type: cell-based, mouse; conditions: construct expressed in LRP−/− fibroblasts expressing APP751; compared to LRP± control cells
# Description: as §1, §2
# APP = molecular target: T1, APP (Homo sapiens, UniProt P05067); experiment: APP and LRP co-immunoprecipitation; type: binding; conditions: transfected cells
# T1 construct: expressed in transfected cells
# APP processing = experiment: Restoration of APP processing in LRP deficient cells (summary statements); type: cell-based; conditions: construct expressed in LRP deficient cells
molecule,measurement,setting,value
"LRP-CT: last 370 amino acids of the LRP β-subunit, transmembrane domain and entire cytoplasmic region, with signal peptide (protein) KRLDNGTCVPVPSPTPPPDAPRPGTCNLQCFNGGSCFLNARRQPKCRCQPRYTGDKCELDQCWEHCRNGGTCAASPSGMPTCRCPTGFTGPKCTQQVCAGYCANNSTCTVNQGNQPQCRCLPGFLGDRCQYRQCSGYCENFGTCQMAADGSRQCRCTAYFEGSRCEVNKCSRCLEGACVVNKQSGDVTCNCTDGRVAPSCLTCVGHCSNGGSCTMNSKMMPECQCPPHMTGPRCEEHVFSQQQPGHIASILIPLLLLLLLVLVAGVVFWYKRRVQGAKGFQHQRMTNGAMNVEIGNPTYKMYEGGEPDDVGGLLDADFALDPDKPTNFTNPVYATLYMGGHGSRHSLASTDEKRELLGRGPEDEIGDPLA",Aβ secretion,Aβ secretion [1],inhibited Aβ secretion; also recorded: dramatically inhibited; also recorded: reduce Aβ secretion in proportion to level of expression
same,APP internalization from the cell surface,APP internalization,largely restored to control level; also recorded: restored to almost control levels; also recorded: can be restored; also recorded: similarly restored; also recorded: partially restored
same,Aβ secretion,Aβ secretion [2],likewise reduced Aβ secretion
same,deficiencies in APP processing,[3],able to restore the deficiencies in APP processing in LRP−/− CHO 13-5-1 cells to control levels
same,amount of cell surface APP,cell surface APP,did not alter the amount of cell surface APP
same,Aβ secretion,Aβ secretion [4],likewise reduced Aβ secretion
same,levels of APP-CTF,APP-CTF,restored to levels similar to LRP± cells; also recorded: restored to control levels; also recorded: can be restored; also recorded: restored to the level seen in LRP± cells
same,Aβ level in medium,Aβ,restored to control level present in LRP± control cells; also recorded: restored the Aβ levels back to control conditions; also recorded: can be restored
same,levels of APPs in medium (APPs secretion),APPs,restored the levels of APPs back to the levels seen in APP751 overexpressing cells; also recorded: restored to control levels; also recorded: restores the abnormal levels of APPs; also recorded: restored to normal levels; also recorded: can be restored
same,co-immunoprecipitation with APP,APP,"can not only co-IP APP with LRP, but also with LRP-CT; also recorded: APP complexes with LRP-CT"
same,APP processing steps altered in the absence of LRP,APP processing,can be restored; also recorded: partial to full restoration
